Laboratory results as given in article PMC4956541.

Substrate: O=S(=O)(O)O
Test: cells, lysate or membranes
Format: cell-based, Homo sapiens
Conditions: ND96(Cl-) bath, pH 7.4, extracellular sulfate, labelled compound

B1: human SLC26A1 (Homo sapiens) (protein)
chain: MDESPEPLQQGRGPVPVRRQRPAPRGLREMLKARLWCSCSCSVLCVRALVQDLLPATRWLRQYRPREYLAGDVMSGLVIGIILVPQAIAYSLLAGLQPIYSLYTSFFANLIYFLMGTSRHVSVGIFSLLCLMVGQVVDRELQLAGFDPSQDGLQPGANSSTLNGSAAMLDCGRDCYAIRVATALTLMTGLYQVLMGVLRLGFVSAYLSQPLLDGFAMGASVTILTSQLKHLLGVRIPRHQGPGMVVLTWLSLLRGAGQANVCDVVTSTVCLAVLLAAKELSDRYRHRLRVPLPTELLVIVVATLVSHFGQLHKRFGSSVAGDIPTGFMPPQVPEPRLMQRVALDAVALALVAAAFSISLAEMFARSHGYSVRANQELLAVGCCNVLPAFLHCFATSAALAKSLVKTATGCRTQLSSVVSATVVLLVLLALAPLFHDLQRSVLACVIVVSLRGALRKVWDLPRLWRMSPADALVWAGTAATCMLVSTEAGLLAGVILSLLSLAGRTQRPRTALLARIGDTAFYEDATEFEGLVPEPGVRVFRFGGPLYYANKDFFLQSLYSLTGLDAGCMAARRKEGGSETGVGEGGPAQGEDLGPVSTRAALVPAAAGFHTVVIDCAPLLFLDAAGVSTLQDLRRDYGALGISLLLACCSPPVRDILSRGGFLGEGPGDTAEEEQLFLSVHDAVQTARARHRELEATDAHL
- K0.5: 0.26 ± 0.04 mM
